According to PMC12698293:

Target: LgBiT (large BiT fragment of split NanoLuc) secreted from GCN4-LgBiT receiver cells
Test: split reporter

Substance: scFv-SmBiT fusion secreted by sender^high cells (anti-GCN4 scFv, HA tag, G4Sx4 linker, high-affinity SmBiT peptide)
- fold signal turn-on (co-culture against cells cultured individually): > 130 fold
